Consider one molecule from patent US20080050351A1 (Pfizer, published 2008).

For this assay, the target named is T1, lecithin:cholesterol acyltransferase (LCAT), purified from human plasma (human, UniProt P04180 25-440).
T1 sequence (looked up): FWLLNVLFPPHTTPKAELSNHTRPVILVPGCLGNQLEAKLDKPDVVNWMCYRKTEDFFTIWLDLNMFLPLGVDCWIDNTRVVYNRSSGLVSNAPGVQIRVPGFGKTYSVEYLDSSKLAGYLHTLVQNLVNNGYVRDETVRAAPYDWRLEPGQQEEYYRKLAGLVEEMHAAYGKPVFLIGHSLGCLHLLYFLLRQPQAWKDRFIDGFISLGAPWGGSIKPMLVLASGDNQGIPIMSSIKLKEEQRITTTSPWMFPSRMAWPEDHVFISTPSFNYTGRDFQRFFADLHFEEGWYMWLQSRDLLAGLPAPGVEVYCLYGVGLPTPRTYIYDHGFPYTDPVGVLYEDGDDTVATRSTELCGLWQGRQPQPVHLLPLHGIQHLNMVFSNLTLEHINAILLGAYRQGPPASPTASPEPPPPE
The assay can be described thus: cell-based or functional assay.

B1: peptide 221 (peptide)
peptide: DVLDLFRELLEELKQKLK
Regarding B1, the “ACTIVITY (%) LCAT” value amounted to 12%.
